Test results from US8846623B2, “Cancer-targeting peptides and uses thereof in cancer treatment and diagnosis” (Academia Sinica, priority 2010, dated 2014).
Square brackets hold non-standard residues; d marks the D form. Ends that are not written are not given here. Peptide text beside a SMILES is read from it.

How the values were obtained:
GRP78 = GRP78 (Homo sapiens, UniProt P11021); assay: Dissociation constant of L-peptide binding to GRP78; settings: dose-dependent binding to GRP78
[1] = target: full-length recombinant GRP78 (Homo sapiens, UniProt P11021); assay: Biacore binding assay of peptides; settings: for Binding index: peptide at 50 μM, difference of RUs divided by molecular weight, normalized to the L-peptide; for Binding to GRP78 compared to the L-peptide: Biacore; for Binding to GRP78 compared to the L-peptide / binding responses in Biacore: in words
Chain of full-length recombinant GRP78 (P11021 19-654): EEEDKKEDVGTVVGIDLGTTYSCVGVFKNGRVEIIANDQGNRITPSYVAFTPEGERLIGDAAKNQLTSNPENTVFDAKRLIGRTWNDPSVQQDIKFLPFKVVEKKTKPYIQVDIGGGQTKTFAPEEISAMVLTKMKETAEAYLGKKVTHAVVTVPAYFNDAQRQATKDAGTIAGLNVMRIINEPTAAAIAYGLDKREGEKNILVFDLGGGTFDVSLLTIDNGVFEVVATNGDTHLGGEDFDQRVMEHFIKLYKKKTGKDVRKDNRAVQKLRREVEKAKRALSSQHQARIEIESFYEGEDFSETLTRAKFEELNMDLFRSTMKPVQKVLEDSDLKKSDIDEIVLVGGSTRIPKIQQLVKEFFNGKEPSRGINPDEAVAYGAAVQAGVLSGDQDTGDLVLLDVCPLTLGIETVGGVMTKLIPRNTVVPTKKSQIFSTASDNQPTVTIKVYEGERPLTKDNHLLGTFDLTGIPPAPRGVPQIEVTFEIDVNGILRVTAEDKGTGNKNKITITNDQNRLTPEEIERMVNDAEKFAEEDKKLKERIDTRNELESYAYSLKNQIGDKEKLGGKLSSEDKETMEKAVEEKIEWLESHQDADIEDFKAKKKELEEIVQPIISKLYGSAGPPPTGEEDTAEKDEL
Description: 26 candidate peptides designed by the method described in Example 1 (listed in Table 6 below) above and peptide CdL, a negative control, were synthesized by conventional chemical synthesis and subjected to the surface-plasmon-resonance based method described below to examine the binding activities of the peptides to human GRP78.
The chip NTA and HBS-P buffer were obtained from GE Healthcare. Sensor chip NTA was prepared by combining Ni-ion chelation and covalent immobilization of N-His tagged GRP78 via amine-coupling with nitrilotriacetic acid on chip NTA (FIG. 6). To immobilize GRP78 protein on sensor chip for peptide-binding assay using Biacore, the methods based on Ni-ion chelation and amine coupling reaction were combined. Sensor chip NTA was prepared by chelation followed by covalent immobilization of N-His-tagged GRP78 via amine-coupling at the nitrilotriacetic acid group on chip NTA. The sensor chip NTA, HBS-P buffer and amine coupling kits were all obtained from GE Healthcare. First, the activation of chip surface using EDC and NHS reagents for amine coupling were according to the standard procedure from manufacturer's instruction. Additionally, one-minute pulse of NiCl2 solution (500 μM) was used to attract His-tagged GRP78 to the surface of sensor chip and formed covalent bond subsequently in the condition of HBS-P buffer (pH 7.4). The resulting differences of RU were about 5,000-6,000 RU. After de-activation by ethanolamine and washed with EDTA (3 mM), the prepared sensor chip was then applied to Biacore X for binding assay. The HBS-P buffer containing 1 mM Gly was used as running buffer for binding assay. Solution of 20 mM sodium hydroxide dissolved in running buffer was used to regenerate the chip surface by one-minute pulse.
The sensor chip thus prepared was applied to Biacore X for determining the binding between the peptides and GRP78. The HBS-P buffer containing 1 mM Gly was used as a running buffer. A solution of 20 mM sodium hydroxide dissolved in the running buffer was used to regenerate chip surface by 1-minute pulses.
The binding of various peptides to GRP78 is also shown as a binding index in Table 6. The binding index represents the difference of resonance units (RUs) divided by the molecular weight of each peptide and was normalized by comparison to the L-peptide.

TW01 cells = assay: Flow cytometry binding of FITC-labeled peptide, TW01; type: cell-based; settings: Nasopharyngeal
Description: (§1) Cells were grown to 80% confluence and harvested with 5 mmol/L EDTA in PBS. Breast cancer specimens were obtained from patients who underwent initial surgery at Tri-Service General Hospital (Taipei, Taiwan). The clinical breast cancer specimens were sliced to fragments of 1 mm2 in size and subjected to enzymatic digestion by collagenase (1,000 U/mL), hyaluronidase (300 U/mL), and DNase I (100 μg/mL) at 37° C. for 2 hours. Primary breast tumor cells were collected after filtration through a 100 μm cell strainer (BD Biosciences) and re-suspended. For transplantation, tumor cells mixed with normal human breast fibroblasts and Matrigel were subcutaneously injected into mammary fat pads of female NOD/SCID mice received a sub-lethal dose of gamma irradiation in advance. After transplantation, cells of xenografted tumors were isolated and inoculated in NOD/SCID mice for serial passages. The cancer cell lines, xenograft cells, and primary breast tumor cells were re-suspended in a FACS buffer (PBS with 2% fetal bovine serum) and incubated at room temperature for 30 min with FITC-conjugated various peptides. To determine breast cancer stem cell (BCSCs) and non-breast cancer stem cell (non-BCSC) populations from xenografts, the cells were stained with a mixture of anti-H2Kd-biotin followed by streptavidin-PER-CP, anti-CD24-PE, anti-CD44-APC and FITC-conjugated various peptides. The primary breast tumor cells were stained with anti-CD45-PerCP-Cy5.5 antibodies, instead of H2Kd staining. The stained cells were then subjected to FACS analysis.

MDA-MB-231 cells = assay: Flow cytometry binding of FITC-labeled peptide, MDA-MB-231; type: cell-based; settings: Breast
Description: as §1

[2] = tested on: human primary breast cancer BC0145 and BC0244 engrafted in NOD/SCID mice; assay: Flow cytometry binding of FITC-labeled peptides to xenograft cells (BCSC-enriched and non-BCSC); type: cell-based; settings: for Binding capacities in vitro compared with L-peptide: both BCSCs and non-BCSCs
Description: To evaluate the in vitro binding abilities of cancer-targeting peptides described herein, the FITC-labeled L-peptide, P-6, P-12, P-13, and P-16 were tested for their binding activities to cancer cells, primary breast cancer engrafted in NOD/SCID mice, and clinical breast cancer specimens by a flow cytometric analysis as described below.
as §1
The binding capacities of the L-peptide and the P-6, P-12, P-13, and P-16 peptides to two xenograft samples from NOD-SCID mice transplanted with human primary breast cancer cell lines BC0145 and BC0244 were evaluated with special focus on their binding to the BCSC subpopulation enriched from the breast cancer cells. Breast cancer cells harvested from engrafted tumors were stained with H2Kd to gate out mouse cells, and stained with anti-CD24 and anti-CD44 antibodies to distinguish BCSC-enriched cells (CD24^−CD44^+) from non-BCSC cells. These cells were co-stained with one of the above-noted peptides, which was FITC-labeled and subjected to flow cytometric analysis. […] The binding abilities of these peptides to clinical breast specimens were similar to those to xenograft samples. […] FIG. 7, panel d.

Chain of GRP78 (P11021 19-654): as above

| Binding index [1] | Compound | other results |
| --- | --- | --- |
| – | CC(C)C[C@H](NC(=O)[C@H](CC(C)C)NC(=O)[C@@H](N)CCCNC(=N)N)C(=O)N[C@@H](CC(=O)O)C(=O)N[C@H](C(=O)N[C@@H](CC(N)=O)C(=O)N[C@@H](CCCNC(=N)N)C(=O)N1CCC[C@H]1C(=O)N[C@@H](CC(C)C)C(=O)N[C@@H](CC(C)C)C(=O)N1CCC[C@H]1C(=O)N[C@@H](Cc1ccc(O)cc1)C(=O)O)[C@@H](C)O [L-peptide] (H-RLLDTNRPLLPY-OH) | Kd (GRP78): 1 to 10 µM |
| <0.2 | RLLDTNRPDLPY [PA-3] | – |
| <0.2 | RLLDTNRPELPY [PA-2] | – |
| 1.4~3.5 | RLLDTNRPFLFY [P-13] | Binding to GRP78 compared to the L-peptide [1]: bound to GRP78 better than the L-peptide; binding responses in Biacore [1]: significant binding responses; Binding ability (TW01 cells): bound; Binding ability (MDA-MB-231 cells): bound; Staining strength (order of binding) ([2]; FITC-labeled peptides, BCSC-enriched and non-BCSC cells of BC0145 and BC0244 xenografts): stained most strongly; Binding capacities in vitro compared with L-peptide ([2]; FITC-labeled peptides): greater binding capacities in vitro than L-peptide |
| <0.2 | RLLDTNRPFLKY [P-10] | – |
| 1.1~1.52 | RLLDTNRPFLPY [P-6] | Binding to GRP78 compared to the L-peptide [1]: bound to GRP78 better than the L-peptide; binding responses in Biacore [1]: significant binding responses; Binding ability (TW01 cells): bound; Binding ability (MDA-MB-231 cells): bound; binding capacity to BCSC-enriched cells ([2]; FITC-labeled peptide, BCSC-enriched cells isolated from the BC0145 xenograft): equivalent to P-12; Binding capacities in vitro compared with L-peptide ([2]; FITC-labeled peptides): greater binding capacities in vitro than L-peptide |
| 1.6 | RLLDTNRPFLWY [PB-1] | binding responses in Biacore [1]: significant binding responses |
| <0.2 | RLLDTNRPHLKY [P-15] | – |
| 0.47 | RLLDTNRPHLPY [PA-6] | – |
| 1.2~3.5 | RLLDTNRPHLWY [P-12] | Binding to GRP78 compared to the L-peptide [1]: bound to GRP78 better than the L-peptide; binding responses in Biacore [1]: significant binding responses; Binding ability (TW01 cells): bound; Binding ability (MDA-MB-231 cells): bound; Binding capacities in vitro compared with L-peptide ([2]; FITC-labeled peptides): greater binding capacities in vitro than L-peptide |
| <0.2 | RLLDTNRPKLFY [P-4] | – |
| <0.2 | RLLDTNRPKLRY [P-16] | – |
| <0.2 | RLLDTNRPKLVY [P-2] | – |
| <0.2 | RLLDTNRPL(d-L)PY (RLLDTNRPL[dL]PY) [CdL, negative control peptide, reference compound] | – |
| 0.77 | RLLDTNRPLLGY [P-11] | – |
| 0.21 | RLLDTNRPLLLY [P-14] | – |
| 1.15 | RLLDTNRPLLPY(CONH2) (RLLDTNRPLLPY-NH2) [PB-3, L-peptide modified with the amidation (CONH2)] | Binding to GRP78 compared to the L-peptide [1]: did not significantly affect the binding affinity; binding responses in Biacore [1]: significant binding responses |
| <0.2 | RLLDTNRPMLKY [P-8] | – |
| <0.2 | RLLDTNRPMLMY [P-5] | – |
| 0.31 | RLLDTNRPNLPY [PA-4] | – |
| <0.2 | RLLDTNRPPLCY [P-9] | – |
| 0.3 | RLLDTNRPQLPY [PA-5] | – |
| <0.2 | RLLDTNRPQLVY [P-3] | – |
| <0.2 | RLLDTNRPRLEY [P-17] | – |
| <0.2 | RLLDTNRPSLFY [P-7] | – |
| 0.35 | RLLDTNRPWLPY [PA-1] | Binding to GRP78 compared to the L-peptide [1]: significantly decreased the binding |
| <0.2 | RLLDTNRPYLKY [P-1] | – |
| 3 | RLLDTNRPYLWY [PB-2] | binding responses in Biacore [1]: significant binding responses |
